Experimental data from US20220196651A1 (ALX ONCOLOGY, published 2022).
One block for each binder: values may come before it.

Target: Drug A
Assay: cell-based or functional assay

molar ratio to Drug A at which interference was mitigated, SPRCA: ≥ 1.25 x molar ratio to Drug A
B1: anti-SIRP multimer F (antibody, mouse IgG1, N297A, V domains shown)
VH: DVQLVESGGGVVRPGESLRLSCAASGFTFSSYAMSWVRQAPGKGLEWLAGISAGGSDTYYIDSVKGRFTISRDNPKNSLYLQMSSLTAEDTAVYYCARETWNHLFDYWGLGTLVTVSS
VL: ALTQPASVSANPGETVKITCSGGDYYSTYYAWYQQKSPGSAPVTVIHSDDKRPSDIPSRFSGSASGSAATLIITGVRVEDEAVYYCGGYDGRTYINTFGAGTTLTVLG

molar ratio to Drug A (130 nM) at which no agglutination was observed, IAT tube assay: 2.5 x molar ratio to Drug A | molar ratio to Drug A (130 nM) at which no interference was observed, SPRCA: ≥ 0.63 x molar ratio to Drug A
B2: anti-SIRP multimer D (antibody, V domains shown)
VH: DVQLVESGGGVVRPGESLRLSCAASGFTFSSNAMSWVRQAPGKGLEWLAGISAGGSDTYYPASVKGRFTISRDNSKNTLYLQMNTLTAEDTAVYYCARETWNHLFDYWGLGTLVTVSS
VL: ALTQPASVSANPGETVKIACSGGDYYSYYYGWYQQKAPGSALVTVIYSDDKRPSDIPSRFSGSASGSTATLTITGVRAEDEAVYYCGGYDYSTYANAFGAGTTLTVL

molar excess of Multimer G that mitigated interference, gel card, Drug A 1000 µg/mL: 4 fold molar excess relative to Drug A | molar excess of Multimer G that mitigated interference, gel card, Drug A 2000 µg/mL: 6 fold molar excess relative to Drug A | molar excess of Multimer G that mitigated interference, gel card, Drug A between 0.1 and 100 (printed ng/mL): 3 fold molar excess relative to Drug A
B3: anti-SIRP multimer G (antibody, mouse IgG2a)
heavy: DVQLVESGGGVVRPGESLRLSCAASGFTFSSNAMSWVRQAPGKGLEWLAGISAGGSDTYYPASVKGRFTISRDNSKNTLYLQMNTLTAEDTAVYYCARETWNHLFDYWGLGTLVTVSSAKTTAPSVYPLAPVCGDTTGSSVTLGCLVKGYFPEPVTLTWNSGSLSSGVHTFPAVLQSDLYTLSSSVTVTSSTWPSQSITCNVAHPASSTKVDKKIEPRGPTIKPCPPCKCPAPNLLGGPSVFIFPPKIKDVLMISLSPIVTCVVVDVSEDDPDVQISWFVNNVEVHTAQTQTHREDYNSTLRVVSALPIQHQDWMSGKEFKCKVNNKDLPAPIERTISKPKGSVRAPQVYVLPPPEEEMTKKQVTLTCMVTDFMPEDIYVEWTNNGKTELNYKNTEPVLDSDGSYFMYSKLRVEKKNWVERNSYSCSVVHEGLHNHHTTKSFSRTPG
light: ALTQPASVSANPGETVKIACSGGDYYSYYYGWYQQKAPGSALVTVIYSDDKRPSDIPSRFSGSASGSTATLTITGVRAEDEAVYYCGGYDYSTYANAFGAGTTLTVLGQPKSSPSVTLFPPSSEELETNKATLVCTITDFYPGVVTVDWKVDGTPVTQGMETTQPSKQSNNKYMASSYLTLTARAWERHSSYSCQVTHEGHTVEKSLSRADCS

molar ratio to Drug A at which interference was mitigated, SPRCA: ≥ 1.25 x molar ratio to Drug A
B4: anti-SIRP multimer E (antibody, mouse IgG1, N297A)
heavy: DVQLVESGGGVVRPGESLRLSCAASGFTFSSNAMSWVRQAPGKGLEWLAGISAGGSDTYYPASVKGRFTISRDNSKNTLYLQMNTLTAEDTAVYYCARETWNHLFDYWGLGTLVTVSSAKTTPPSVYPLAPGSAAQTNSMVTLGCLVKGYFPEPVTVTWNSGSLSSGVHTFPAVLQSDLYTLSSSVTVPSSTWPSETVTCNVAHPASSTKVDKKIVPRDCGCKPCICTVPEVSSVFIFPPKPKDVLTITLTPKVTCVVVDISKDDPEVQFSWFVDDVEVHTAQTQPREEQFASTFRSVSELPIMHQDWLNGKEFKCRVNSAAFPAPIEKTISKTKGRPKAPQVYTIPPPKEQMAKDKVSLTCMITDFFPEDITVEWQWNGQPAENYKNTQPIMDTDGSYFIYSKLNVQKSNWEAGNTFTCSVLHEGLHNHHTEKSLSHSPG
light: ALTQPASVSANPGETVKIACSGGDYYSYYYGWYQQKAPGSALVTVIYSDDKRPSDIPSRFSGSASGSTATLTITGVRAEDEAVYYCGGYDYSTYANAFGAGTTLTVLGQPKSSPSVTLFPPSSEELETNKATLVCTITDFYPGVVTVDWKVDGTPVTQGMETTQPSKQSNNKYMASSYLTLTARAWERHSSYSCQVTHEGHTVEKSLSRADCS
